Values quoted from earlier work as cited in article PMC5152572.
Read-outs that look alike come from different tables or passages of the source.

Key:
[1] = biological target: IL-1 receptor (Homo sapiens) (UniProt P14778)
[2] = biological target: IL-1 receptor (Homo sapiens) (UniProt P14778); remark: listed apart in the source

Chain of UniProt P14778 (P14778 18-569): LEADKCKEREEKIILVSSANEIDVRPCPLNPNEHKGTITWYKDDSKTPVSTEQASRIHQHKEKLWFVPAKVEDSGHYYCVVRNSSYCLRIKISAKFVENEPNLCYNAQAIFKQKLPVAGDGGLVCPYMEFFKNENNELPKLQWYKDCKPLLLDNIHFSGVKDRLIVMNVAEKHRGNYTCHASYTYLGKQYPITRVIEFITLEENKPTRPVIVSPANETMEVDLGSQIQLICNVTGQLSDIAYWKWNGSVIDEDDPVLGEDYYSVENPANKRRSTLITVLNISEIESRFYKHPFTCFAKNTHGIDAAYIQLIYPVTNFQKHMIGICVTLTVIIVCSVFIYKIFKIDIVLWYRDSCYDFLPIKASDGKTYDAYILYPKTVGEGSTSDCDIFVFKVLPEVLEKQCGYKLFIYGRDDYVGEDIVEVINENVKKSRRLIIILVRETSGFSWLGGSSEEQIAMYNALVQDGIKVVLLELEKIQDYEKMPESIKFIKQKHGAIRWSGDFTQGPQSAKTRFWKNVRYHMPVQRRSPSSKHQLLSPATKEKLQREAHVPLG

Row | Substance | Kd [1] [nM] | Kd [2] [nM]
1 | mature IL-1α mature (from UniProt P01583) | 4.5 | –
2 | pro-IL-1α (from UniProt P01583) | – | 4
